Experimental data: PMC8123688

Target: TSH receptor (TSHR) on human ML-1 cells (human (endogenous in ML-1)) (UniProt P16473)
Experiment: radioligand binding; real-time kinetic binding assay with LigandTracer; 10^6 ML-1 cells seeded in a tilted Petri dish; 2 mL of 30 nM radiolabeled ligand in culture medium for 1 h, then medium without ligand to follow release; Kd from binding/release curve (GraphPad Prism)

Chain of TSH receptor (TSHR) on human ML-1 cells (human (endogenous in ML-1)) (P16473 21-764): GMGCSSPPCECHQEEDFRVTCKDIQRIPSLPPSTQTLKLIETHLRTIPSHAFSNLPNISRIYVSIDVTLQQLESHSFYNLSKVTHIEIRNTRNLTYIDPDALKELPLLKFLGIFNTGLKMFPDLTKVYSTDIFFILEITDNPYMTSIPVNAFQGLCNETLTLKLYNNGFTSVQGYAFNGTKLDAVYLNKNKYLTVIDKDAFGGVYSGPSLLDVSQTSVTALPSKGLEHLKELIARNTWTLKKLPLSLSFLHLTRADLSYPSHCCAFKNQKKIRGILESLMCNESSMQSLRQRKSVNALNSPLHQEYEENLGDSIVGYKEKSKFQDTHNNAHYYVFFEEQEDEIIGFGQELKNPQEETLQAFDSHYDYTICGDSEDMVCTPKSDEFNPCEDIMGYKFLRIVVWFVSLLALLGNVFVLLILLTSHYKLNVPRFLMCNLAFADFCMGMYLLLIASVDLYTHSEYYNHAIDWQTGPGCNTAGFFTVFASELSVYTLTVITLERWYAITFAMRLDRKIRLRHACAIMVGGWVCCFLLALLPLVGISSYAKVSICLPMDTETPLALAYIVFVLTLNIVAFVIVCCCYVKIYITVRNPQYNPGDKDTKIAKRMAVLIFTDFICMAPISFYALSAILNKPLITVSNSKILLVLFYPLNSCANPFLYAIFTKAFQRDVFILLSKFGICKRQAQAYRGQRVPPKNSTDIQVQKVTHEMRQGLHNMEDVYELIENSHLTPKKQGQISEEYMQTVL
Chain of 99mTc-HYNIC-TR1401, radiolabeled superagonist recombinant human TSH analogue TR1401 (P01215 25-116): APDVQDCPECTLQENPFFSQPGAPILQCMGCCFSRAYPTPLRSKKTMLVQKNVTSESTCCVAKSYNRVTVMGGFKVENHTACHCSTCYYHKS
Chain of 99mTc-HYNIC-TR1401, radiolabeled superagonist recombinant human TSH analogue TR1401 (P01222 21-132): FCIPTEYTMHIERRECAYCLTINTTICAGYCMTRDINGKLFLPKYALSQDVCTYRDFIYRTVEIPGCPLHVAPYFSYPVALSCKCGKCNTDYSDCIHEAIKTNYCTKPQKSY
Chain of 99mTc-HYNIC-TR1402, radiolabeled superagonist recombinant human TSH analogue TR1402 (P01215 25-116): as the sequence (P01215 25-116) above
Chain of 99mTc-HYNIC-TR1402, radiolabeled superagonist recombinant human TSH analogue TR1402 (P01222 21-132): as the sequence (P01222 21-132) above

Row | Kd | Substance
1 | 2.7 nM | 99mTc-HYNIC-TR1401, radiolabeled superagonist recombinant human TSH analogue TR1401 (from UniProt P01215 25-116; P01222 21-132) (ligand)
2 | 0.5 nM | 99mTc-HYNIC-TR1402, radiolabeled superagonist recombinant human TSH analogue TR1402 (from UniProt P01215 25-116; P01222 21-132) (ligand)
